From article PMC7170509, “Substrate recognition and ATPase activity of the E. coli cysteine/cystine ABC transporter YecSC-FliY” (The Journal of Biological Chemistry, 2020)

Tests used:
[1] = biological target: T1, FliY (Escherichia coli, UniProt P0AEM9); assay: isothermal titration calorimetry; assay type: binding
T1 construct: gene tcyJ; C-terminal His6 tag (pET21b); expressed in E. coli BL21-Gold(DE3), purified from osmotic shock extract; monomer

[2] = biological target: T1, FliY; assay: nanoDSF thermal shift; assay type: binding; conditions: 30 μM FliY, 200 μM ligand; 50 mM Tris-HCl pH 7.5, 250 mM NaCl
[3] = biological target: T2, YecSC, the E. coli cysteine/cystine ABC transporter (YecS transmembrane domain and YecC nucleotide-binding … (E. coli, UniProt P0AFT2 1-222; P37774 1-250); assay: cell-based or functional assay
T2 sequence (looked up) 1: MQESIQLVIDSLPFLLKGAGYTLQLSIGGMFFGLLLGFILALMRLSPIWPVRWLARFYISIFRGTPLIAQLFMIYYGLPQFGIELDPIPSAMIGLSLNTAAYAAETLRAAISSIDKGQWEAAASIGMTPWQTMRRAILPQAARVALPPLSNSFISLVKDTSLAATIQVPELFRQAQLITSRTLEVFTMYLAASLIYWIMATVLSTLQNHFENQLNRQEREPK
T2 sequence (looked up) 2: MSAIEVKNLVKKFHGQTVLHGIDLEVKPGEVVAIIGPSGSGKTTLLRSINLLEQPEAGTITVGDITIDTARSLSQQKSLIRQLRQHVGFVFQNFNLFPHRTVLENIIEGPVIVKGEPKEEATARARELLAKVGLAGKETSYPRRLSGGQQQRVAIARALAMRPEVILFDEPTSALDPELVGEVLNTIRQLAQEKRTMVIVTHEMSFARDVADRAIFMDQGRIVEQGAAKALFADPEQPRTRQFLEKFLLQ

Molecule: N[C@H](CS)C(=O)O [D-cysteine]
- Kd [1]: 10 ± 3.4 µM

Molecule: N[C@@H](CS)C(=O)O [L-cysteine]
- Kd [1]: 14.4 ± 2.4 µM

Molecule: N[C@@H](CSSC[C@H](N)C(=O)O)C(=O)O [L-cystine]
- dTm [2]: the L-enantiomer of its oxidized dimeric form (Cys-S-S-Cys, cystine) also led to thermostabilization of FliY
- Kd [1]: 9.3 ± 2.8 µM

B1: FliY, the substrate-binding protein (SBP) of the E. coli YecSC-FliY cysteine/cystine ABC import system (natural protein, UniProt P0AEM9 30-266, looked up)
chain: DEGLLNKVKERGTLLVGLEGTYPPFSFQGDDGKLTGFEVEFAQQLAKHLGVEASLKPTKWDGMLASLDSKRIDVVINQVTISDERKKKYDFSTPYTISGIQALVKKGNEGTIKTADDLKGKKVGVGLGTNYEEWLRQNVQGVDVRTYDDDPTKYQDLRVGRIDAILVDRLAALDLVKKTNDTLAVTGEAFSRQESGVALRKGNEDLLKAVNDAIAEMQKDGTLQALSEKWFGADVTK
- apparent Km for FliY of the stimulation of ATP hydrolysis by 1 μM YecSC (0.25–20 μM FliY), in the absence of substrate (apo FliY) [3]: 10.3 µM
- apparent Km for FliY of the stimulation of ATP hydrolysis by 1 μM YecSC (0.25–20 μM FliY), in the presence of 100 μM L-cystine (holo FliY) [3]: 1.1 µM
- interaction ratio from the Michaelis–Menten fit of initial ATPase rates of YecSC against FliY concentration, without and with L-cystine [3]: 1 FliY:YecSC
- stimulation of the ATPase activity of YecSC by FliY with L-cystine, over basal activity [3]: ~11 fold
- stimulation of the ATPase activity of YecSC by substrate-free apo FliY, over basal activity [3]: ~3 fold
